# Laboratory results as given in publication PMC8096230.
# Molecular target: T1, GR DBD (human, UniProt P04150 412-506)
# Experiment: MST
# T1 sequence (P04150 412-506): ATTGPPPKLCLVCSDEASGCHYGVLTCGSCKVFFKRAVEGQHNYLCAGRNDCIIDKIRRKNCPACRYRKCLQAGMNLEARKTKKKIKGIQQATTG
row,Binder,Kd
1,GRE1 (Eif4ebp2 GBSe1) (dsDNA) DNA 1: TGAGTCAGGACTGAGTGTTCTCACGG DNA 2: CCGTGAGAACACTCAGTCCTGACTCA,195 nM
2,GRE2 (Eif4ebp2 GBSe2) (dsDNA) DNA 1: AGGCTGGGTACACAGAGTGCCCTGCC DNA 2: GGCAGGGCACTCTGTGTACCCAGCCT,204 nM
3,GRE (Gilz) / GREgilz (dsDNA) DNA 1: TGAGTCAGAACATTGGGTTCCCACGG DNA 2: CCGTGGGAACCCAATGTTCTGACTCA,154 nM

# Molecular target: T1, GR DBD
# Experiment: EMSA
row,Binder,binding result
1,GRE1 mut (dsDNA) DNA 1: TGAGTCAGGATTGAGTATTCTCACGG DNA 2: CCGTGAGAACACTCAGTCCTGACTCA,no binding
2,GRE2 mut (dsDNA) DNA 1: AGGCTGGGTATACAGAATGCCCTGCC DNA 2: GGCAGGGCACTCTGTGTACCCAGCCT,no binding
3,NSP (non-specific probe) (dsDNA) DNA 1: TGGGCTGAGGCTGGGTGTGGCCCGAC DNA 2: GTCGGGCCACACCCAGCCTCAGCCCA,no binding
